Residue numbers refer to the chain shown, from its start.

Here are results for 33 molecules from US12157773 (SYNTHEKINE, dated 2024).

T1: hIL27Rα ECD antigen (human, UniProt Q6UWB1 33-516)
T1 construct: Antigen of biopanning and PE-ELISA; also called ECD of the human IL27Rα; IL27Rα coated on the plate
T1 sequence: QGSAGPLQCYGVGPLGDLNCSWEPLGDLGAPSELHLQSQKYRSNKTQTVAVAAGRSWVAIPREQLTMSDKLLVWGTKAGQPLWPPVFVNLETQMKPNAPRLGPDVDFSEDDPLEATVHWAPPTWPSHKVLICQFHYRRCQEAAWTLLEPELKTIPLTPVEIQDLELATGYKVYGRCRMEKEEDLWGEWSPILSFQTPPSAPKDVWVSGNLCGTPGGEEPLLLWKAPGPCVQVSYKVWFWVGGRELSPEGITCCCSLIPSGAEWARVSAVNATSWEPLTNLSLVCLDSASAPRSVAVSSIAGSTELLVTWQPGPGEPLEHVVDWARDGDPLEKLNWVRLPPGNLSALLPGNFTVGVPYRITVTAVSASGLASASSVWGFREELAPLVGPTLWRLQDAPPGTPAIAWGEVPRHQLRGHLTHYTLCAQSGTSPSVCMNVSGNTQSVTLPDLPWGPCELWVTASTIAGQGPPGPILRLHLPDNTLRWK

T2: mIL27Rα ECD antigen (mouse, UniProt O70394 25-510)
T2 construct: Antigen of biopanning and PE-ELISA; The immunogen was made as a fusion of the ECD (residues 25-510 of the precursor) with the human IgG1 hinge and Fc; also called ECD of mouse IL27Rα; IL27Rα coated on the plate
T2 sequence: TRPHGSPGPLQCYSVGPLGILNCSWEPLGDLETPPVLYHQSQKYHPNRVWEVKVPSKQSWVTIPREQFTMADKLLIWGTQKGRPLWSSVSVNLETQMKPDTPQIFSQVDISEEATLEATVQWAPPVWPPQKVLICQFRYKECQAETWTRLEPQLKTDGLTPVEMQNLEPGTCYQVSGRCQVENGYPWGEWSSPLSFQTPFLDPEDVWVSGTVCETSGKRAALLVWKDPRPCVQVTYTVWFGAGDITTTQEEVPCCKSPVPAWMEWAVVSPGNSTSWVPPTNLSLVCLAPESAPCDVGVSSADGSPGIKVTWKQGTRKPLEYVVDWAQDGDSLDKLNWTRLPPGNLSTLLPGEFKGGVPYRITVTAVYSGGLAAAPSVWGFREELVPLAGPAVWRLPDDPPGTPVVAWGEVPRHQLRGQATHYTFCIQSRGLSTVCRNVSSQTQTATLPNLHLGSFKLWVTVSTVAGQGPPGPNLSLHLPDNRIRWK

B1: hIL27Ra VHH4 (VHH)
VHH: QVQLQESGGGLVQPGESLRLSCTASGFTFSNYAMSWVRQAPGKGLEWVSGINVAYGITSYADSVKGRFTISRDNTKNTLYLQLNSLKTEDTAIYYCVKHSGTTIPRGFISYTKRGQGTQVTVSS
notes: Camel VHH as periplasmic extract of a phage clone in the PE-ELISA; also called anti-human IL27Rα VHH; not shown: HA/His tag from the pMECS phagemid
B2: hIL27Ra VHH14 (VHH)
VHH: QVQLQESGGGSVQAGGSLRLSCVASGYVSCDYFLPSWYRQAPGKEREFVSIIDGTGSTSYAASVKGRFTASQDKGKNIAYLQMNSLKPEDTAMYYCKASCVRGRAISEYWGQGTQVTVSS
notes: as for B1
B3: hIL27Ra VHH3 (VHH)
VHH: B2 VHH with Q72E, I106V
notes: as for B1
B4: hIL27Ra VHH18 (VHH)
VHH: B2 VHH with A105G
notes: as for B1
B5: hIL27Ra VHH5 (VHH)
VHH: B2 VHH with V23T, I51V
notes: as for B1
B6: hIL27Ra VHH13 (VHH)
VHH: B2 VHH with K74R, A105T
notes: as for B1
B7: hIL27Ra VHH10 (VHH)
VHH: QVQLQESGGGSVQAGGSLRLSCRASGSTYSNYCLGWFRQITGKEREGVAVINWVGGMLYFADSVKGRFTVSQDQAKNTLYLQMNSLKPEDTAMYYCAAESVSSFSCGGWLTRPDRVPYWGQGTQVTVSS
notes: as for B1
B8: hIL27Ra VHH11 (VHH)
VHH: B7 VHH with I40S, Q74H, L79V, Y80T, D114G
notes: as for B1
B9: hIL27Ra VHH16 (VHH)
VHH: B7 VHH with L79V, V101A
notes: as for B1
B10: hIL27Ra VHH23 (VHH)
VHH: B7 VHH with G26R, T28P, S30G, I40S, Q74H, L79V, Y80T
notes: as for B1
B11: hIL27Ra VHH12 (VHH)
VHH: B7 VHH with G16E, L79V, Q82E, A98T
notes: as for B1
B12: hIL27Ra VHH22 (VHH)
VHH: B7 VHH with I40T, L79V
notes: as for B1
B13: hIL27Ra VHH17 (VHH)
VHH: QVQLQESGGGLVQPGGSLRLSCAASGFTFSLSGMSWVRQAPGKGLEWVSAISSGGASTYYTDSVKGRFTISRDNAKNMLYLQLNSLKTEDTAMYYCAKGGSGYGDASRMTSPGSQGTQVTVSS
notes: as for B1
B14: hIL27Ra VHH2 (VHH)
VHH: B13 VHH with M78I
notes: as for B1
B15: hIL27Ra VHH24 (VHH)
VHH: B13 VHH with L31H, A50T, S52N
notes: as for B1
B16: hIL27Ra VHH7 (VHH)
VHH: QVQLQESGGGLVQPGGSLRLSCAASGFTFSSYPMSWVRQAPGKGLEWISTISAGGDTTLYADSVKGRFTSSRDNAKNTLYLQLNSLKTEDTAIYYCAKRIDCNSGYCYRRNYWGQGTQVTVSS
notes: as for B1
B17: hIL27Ra VHH8 (VHH)
VHH: B16 VHH with L11S, P14V
notes: as for B1
B18: hIL27Ra VHH20 (VHH)
VHH: B16 VHH with I48V, A53S, I93M, R109K, N111S
notes: as for B1
B19: hIL27Ra VHH6 (VHH)
VHH: QVQLQESGGGLVQPGGSLRLSCAASGFSFSSYAMKWVRQAPGKGLEWVSTISSGGSSTNYADSVKGRFTISRDNAKNTLYLQLNSLKIEDTAMYYCAKAIVPTGATMERGQGTQVTVSS
notes: as for B1
B20: mIL27Ra VHH5 (VHH)
VHH: QVQLQESGGGSVQAGGSLRLSCAVSGDSTYSMGWFRQPPGKEREGVAAIAKDGITIHADSVKGRFTISKDNAKNTLYLQMNSLKPEDTAMYYCAAHRPYGPPLNPRWYTYWGQGTQVTVSS
notes: Camel VHH as periplasmic extract of a phage clone in the PE-ELISA; also called anti-mouse IL27Rα VHH; not shown: HA/His tag from the pMECS phagemid
B21: mIL27Ra VHH9 (VHH)
VHH: B20 VHH with N81S
notes: as for B20
B22: mIL27Ra VHH10 (VHH)
VHH: B20 VHH with A50G
notes: as for B20
B23: mIL27Ra VHH14 (VHH)
VHH: B20 VHH with A50T, K69G, S82N
notes: as for B20
B24: mIL27Ra VHH8 (VHH)
VHH: B20 VHH with A50P, K51T
notes: as for B20
B25: mIL27Ra VHH1 (VHH)
VHH: QVQLQESGGGSVQAGGSLRLSCAASKNSNFMGWFRQAPGKEREGVAAMMTKNNNTYYADSVKGRFTISHDNAKNTVYLQMDSLKPEDTAVYYCAAVYRTRRLRVLEAANFDYWGQGTQVTVSS
notes: as for B20
B26: mIL27Ra VHH2 (VHH)
VHH: QVQLQESGGGSVQAGGSLRLSCTASGYTSSRYCMGWFRQTPGKKREGVAAIYTGGGTTFYHGSVKGRFTISQDNTTNTVYLQMHNLKPEDTAMYYCAAGPVTRACDEYNYWGQGTQVTVSS
notes: as for B20
B27: mIL27Ra VHH6 (VHH)
VHH: QVQLQESGGGSVQAGGSLRLSCAASGYTYSSYCMAWFRQAPGKEREGVAAIDSDGSTSYADSVKGRFTISKDNAKNTLYLQMNSLKPEDTAMYYCAAASGRCLGPGIRSLIWGQGTQVTVSS
notes: as for B20
B28: mIL27Ra VHH13 (VHH)
VHH: QVQLQESGGGSVQAGGSLRLSCAASGYSINRMGWFRQAPGKEREGVAAISIGGGRTYYADSVKGRFTISQDNAKNTVDLQMNSLKPEDTAMYYCAAGLVYGEAWLDSRHYNKWGQGTQVTVSS
notes: as for B20
B29: mIL27Ra VHH4 (VHH)
VHH: B28 VHH with R55Q
notes: as for B20
B30: mIL27Ra VHH12 (VHH)
VHH: B28 VHH with A14T, G33A, G54D, N75H
notes: as for B20
B31: mIL27Ra VHH3 (VHH)
VHH: QVQLQESGGGSVQAGGSLRLSCAGSGYSLSNYCMGWFRQAPGQGREGVASLRFVSGATFYADSVKGRFTIAQDNAKNTLYLQMNSLKPEDTAMYYCGIKSRGICGGRLVDVDFGNWGQGTQVTVSS
notes: as for B20
B32: mIL27Ra VHH7 (VHH)
VHH: QVQLQESGGGSVQAGGSLRLSCAVSGDSTYSMGWFRQPPGKEREGVAAITKDITIHADSVKGRFTISKDNAKNTLYLQMNSLKPEDTAMYYCAAHRPYGPPLNPRWYTYWGQGTQVTVSS
notes: as for B20
B33: mIL27Ra VHH11 (VHH)
VHH: B32 VHH with K83R
notes: as for B20

One experiment has as its target T1, hIL27Rα ECD antigen. In words: PE-ELISA, periplasmic extract on antigen-coated plate. Here is the method: (§1) Upon completion of the biopanning of Example 3, three 96-well plates of individual phage clones were isolated in order to perform periplasmic extract ELISA (PE-ELISA) on IL27Rα coated plates to identify positive VHH binders that selectively bound […]. A 96-well plate was coated with IL27Rα and PBS under the same conditions. Next, wells were blocked at 37° C. for 1 h. Then, 100 µl of extracted antibodies was added to each well and incubated for 1 h. Subsequently, 100 µl of anti-tag polyclonal antibody conjugated to HRP was added to each well and incubated at 37° C. for 1 h. Plates were developed with TMB substrate. The reaction was stopped by the addition of H2SO4. Absorbance at 450 nm was read on a microtiter plate reader. […] Positive clones were sequenced, and sequences analyzed to identify unique clonotypes.
As for B1, the binding result is “binds”.

For the molecule B2, the binding result is listed as “binds”.

B3: the binding result was “binds”.

With B4, the binding result is given as “binds”.

With B5, the binding result is given as “binds”.

As to B6, the binding result is “binds”.

With B7, the binding result is recorded as “binds”.

In the case of B8, the binding result is “binds”.

With B9, the binding result was “binds”.

As to B10, the binding result is given as “binds”.

As for B11, the binding result is given as “binds”.

B12: the binding result is “binds”.

Consider B13, for which the binding result is reported as “binds”.

On to B14, for which the binding result is “binds”.

As to B15, the binding result is on record as “binds”.

As to B16, the binding result is recorded as “binds”.

For the molecule B17, the binding result is recorded as “binds”.

Regarding B18, the binding result is “binds”.

Regarding B19, the binding result was “binds”.

In another experiment the target is T2, mIL27Rα ECD antigen. Described as above. Here is the method:
as §1
On to B20, for which the binding result is on record as “binds”.

For B21, the binding result is recorded as “binds”.

Consider B22, for which the binding result was “binds”.

As to B23, the binding result is “binds”.

For B24, the binding result was “binds”.

Take B25: the binding result was “binds”.

For the molecule B26, the binding result is listed as “binds”.

Turning to B27, the binding result is recorded as “binds”.

On to B28, for which the binding result is reported as “binds”.

For B29, the binding result is “binds”.

In the case of B30, the binding result is on record as “binds”.

Regarding B31, the binding result is “binds”.

Regarding B32, the binding result is reported as “binds”.

For B33, the binding result was “binds”.
